Measurements from patent publication US8460669B2, “Compositions and methods for identifying response targets and treating flavivirus infection responses” (Academia Sinica, priority 2005, dated 2013).
Entries after “also recorded” stand apart in the source; their conditions may differ.

What was measured:
Dengue virus [1] = test: ELISA of receptor.Fc interaction with Dengue virus; assay type: binding; conditions: for interaction of receptor.Fc with Dengue virus (ELISA): receptor.Fc 1 μg, DV 5×10^6
Procedure: One μg of each receptor.Fc fusion protein was coated onto microtiter plates overnight at 4° C. DV (5×10^6 particles) of strain 16681 (a DEN2 strain) in binding buffer (1% BSA, 2 mM CaCl2, 2 mM MgCl2, 50 mM Tris-HCl pH 7.5, 150 mM NaCl) was then added to the plates and the plates were incubated for 2 hours. After washing non-bound virus, a biotinylated anti-DEN2 envelope protein antibody (Wu et al., J Virol, 2002. 76(8): p. 3596-604) was applied to bind to the virus for 1 hour. Diluted horseradish peroxidase-conjugated streptavidin was then added to the plates, followed by a 1 hour incubation. TMB substrate was then added and the plates were read using an ELISA reader at OD450 nm.
The microtiter plate assay was repeated in the presence of EDTA (10 mM) to chelate Ca^++ cations.
The microtiter plate assay was also repeated for DVLR1/CLEC5A.Fc fusion protein with DV particles (5×10^6) that had been 1) preincubated with 500 U of the glycosidase PNGaseF (New England Biolabs, Inc.) overnight at 37° C.; or 2) treated with dithiothreitol (DTTI) (0.1M); or 3) incubated at 95° C. for 5 minutes; or 4) UV irradiated for 5 minutes. The results are shown in FIG. 8D (asterisks indicate where the binding affinity of DVLR1/CLEC5A.Fc fusion protein is altered by modification of the virus relative to non-treated virus; ** p<0.01, *** p<0.001, Student's t test). […]

[2] = Enzyme linked immunoassay of receptor.Fc fusions on immobilized GLPS-F3; assay type: binding, Ganoderma lucidum; conditions: GLPS-F3 100 ng/well; receptor.Fc 1 μg/ml
Procedure: The interactions of polysaccharides with receptor.Fc fusion proteins was further investigated by performing an enzyme-linked immunoassay, which was based on immobilizing GLPS-F3 through both hydrophilic and hydrophobic forces onto microtiter plates (polysytrene). In this format, the number of different receptor.Fc fusions for profiling was increased in comparison to Example 7. To optimize the quantity of GLPS-F3 for immobilization, various amounts (3-1000 ng/well, diluted in 100 mM Tris buffer, pH9.5) of biotinylated-GLPS-F3 (Biotin-GLPS-F3) were coated onto MaxiSorp StarWell microtiter plates (50 μL/well; Nunc). The plates were incubated overnight at 4° C., and then the wells were washed twice with TBST, followed by blocking with 200 μL blocking buffer (2% BSA/TBST) for 1 hour at room temperature. Peroxidase-conjugated avidin (1:5000 dilution, Vector Laboratories) and TMB (tetramethylbenzidine) substrate was then used for detection of immobilized biotinylated GLPS-F3.
The interaction between GLPS-F3 and receptor.Fc was then tested. […] Wells were incubated with 100 μL TMB substrate for 15 min after TBST washing and read at 450 nm in a Fusion plate reader (Perkin Elmer). […]

Dengue virus [3] = test: Immunoprecipitation of Dengue virus with receptor.Fc; assay type: binding; conditions: receptor.Fc 5 μg; DV 5×10^6; listed as DC-SIGN.Fc
Procedure: The results are depicted in FIG. 8A (** indicates p<0.01, *** indicates p<0.001 (Student's t test)). […] Specifically, 5×10^6 Dengue virus particles were incubated with 5 μg of each protein, and then Protein A beads were added. The resulting immunocomplexes were washed, separated by SDS-PAGE, and transferred onto nitrocellulose membrane. The membrane was then probed with biotinylated anti-DEN2 envelope protein antibody and developed with horseradish peroxidase-conjugated streptavidin.
In FIG. 16b, complexes of DV (5×10^6 PFU) with receptor.Fc (5 μg) were immunoprecipitated and detected on westerns with mAb to DV envelope (E) protein. […] FIGS. 16d and 16e show sugar competition assays wherein both DC-SIGN (CLEC4L) and DVLR1/CLEC5A increase DV binding to human 293T cells (FIG. 16d), while addition of sugars inhibits biotinylated DV binding to DC-SIGN- (left panel) or DLVR1/CLEC5A- (right panel) transfected 293T cells in a dose-dependent manner as determined by flow cytometry (FIG. 16e). According to FIG. 16e, MFI represents mean fluorescence intensity. Units (U) for monosaccharide (mannose and fucose) and polysaccharide (mannan) are mM and mg/ml, respectively. […] Data are expressed as the mean±s.d. of three independent experiments. Two-tailed, Student's t-tests were performed. […]

Molecule | interaction of receptor.Fc with Dengue virus (ELISA) (Dengue virus [1]) | binding ability to GLPS-F3 [2] | binding to DV pretreated with heat or dithiothreitol (Dengue virus [1]; 95° C. 5 min or DTT 0.1 M) | Ca^++ dependence of binding to Dengue virus (Dengue virus [1]; EDTA 10 mM) | interaction of receptor.Fc with Dengue virus (ELISA) (Dengue virus [1]; listed as DC-SIGN.Fc) | immunoprecipitation of Dengue virus (E protein detected) (Dengue virus [3])
Fc.DC-SIGNR: DC-SIGNR (CLEC4M) receptor.Fc fusion protein | able to capture DV2 | minimal binding ability | – | – | – | –
Fc.DC-SIGN: DC-SIGN (CLEC4L) extracellular domain fused to human IgG1 Fc (protein, left off: a dimerising Fc or GST) QVSKVPSSISQEQSRQDAIYQNLTQLKAAVGELSEKSKLQEIYQELTQLKAAVGELPEKSKLQEIYQELTRLKAAVGELPEKSKLQEIYQELTWLKAAVGELPEKSKMQEIYQELTRLKAAVGELPEKSKQQEIYQELTRLKAAVGELPEKSKQQEIYQELTRLKAAVGELPEKSKQQEIYQELTQLKAAVERLCHPCPWEWTFFQGNCYFMSNSQRNWHDSITACKEVGAQLVVIKSAEEQNFLQLQSSRSNRFTWMGLSDLNQEGTWQWVDGSPLLPSFKQYWNRGEPNNVGEEDCAEFSGNGWNDDKCNLAKFWICKKSAASCSRDEEQFLSPAPATPNPPPA | binds | – | not | Ca^++ dependent; also recorded: Ca^++-dependent | able to capture DV2 | able to immunoprecipitate DV; also recorded: detected
